Test results: article PMC2700083, “A covalent peptide inhibitor of RGS4 identified in a focused one-bead, one compound library screen” (BMC Pharmacology, 2009)
pKd: −log10 of the molar value.

Tests used:
Assay in all cases: FCPIA (flow cytometry protein interaction assay, Luminex beads); Gαo affinities for RGS4Δ51N wild type and mutants on beads, with AMF
[1] = biological target: MBP-RGS4Δ51N A132C in the -7C (UniProt P49799)
[2] = biological target: MBP-RGS4Δ51N with no Cys in the RGS domain (UniProt P49799)
[3] = biological target: MBP-RGS4Δ51N with no Cys in the C-terminus (UniProt P49799)
[4] = biological target: MBP-RGS4Δ51N A148C in the -7C (UniProt P49799)
[5] = biological target: MBP-RGS4Δ51N -7C mutant (all 7 cysteines removed) (UniProt P49799)
[6] = biological target: MBP-RGS4Δ51N A71C in the -7C (UniProt P49799)
[7] = biological target: MBP-RGS4Δ51N A95C in the -7C (UniProt P49799)

Chain of Gαo, Alexa Fluor 532-labeled (P59215 whole entry): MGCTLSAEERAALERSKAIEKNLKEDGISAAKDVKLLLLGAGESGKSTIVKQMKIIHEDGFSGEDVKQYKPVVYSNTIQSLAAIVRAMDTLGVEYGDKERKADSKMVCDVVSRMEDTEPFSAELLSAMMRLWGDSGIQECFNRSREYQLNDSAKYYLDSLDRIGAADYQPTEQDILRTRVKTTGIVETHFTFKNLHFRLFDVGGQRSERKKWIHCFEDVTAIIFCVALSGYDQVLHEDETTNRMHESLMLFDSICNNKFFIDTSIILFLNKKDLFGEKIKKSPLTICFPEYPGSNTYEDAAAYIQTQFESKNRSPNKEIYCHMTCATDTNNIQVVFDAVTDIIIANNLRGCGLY

pKd [1]: 7.90
pKd [2]: 8.41
pKd [3]: 8.30
pKd [4]: 8.24
pKd [5]: 8.08
pKd [6]: 8.04
pKd [7]: 7.92
Substance: Gαo, Alexa Fluor 532-labeled (from UniProt P59215 1-354) (natural protein)
